assay: soluble on expression in E. coli; label from the status in PepcDB or PDB records

Sequence | soluble on expression in E. coli
MAHHHHHHMATCTLSVARFGRPSTFAHRRVRWLPPYDGNSTCLDWWLPTDAEAADTAADGGAAAIRVRALAVILPGLTGSSKEFYVRRMARQLLRAHMATCVLTSRGVADTHLERPQIFSALFAKDLRHIMQACMTREKVQECLLRRISPLQSSDHHKGAVPIIGVAFSLGGRILTNYVSEQGEAEAPSGFDAVYTITSPHNVSDGAAALRMLLSKLLYGSTLYKRLRAYYERHKNVLQNLPDIDKKLLMDGDSPLVKRLRTVQDFGEFITGPHVGFPGAEAYYVAASSFRRLHHSRMPQVCVVVANDPIYGPPQPAPRWLHLIDMHCGGLVYVEMPVGGHLGFLGCPWSEWTQAPNEMEHLVLRSLIHFIKSADTQAAEAKTNE | soluble
MAHHHHHHMATLTEDEIAPSAIAAERERLQEATQHVAELERRLDALQRELEAACTRREQLLLSVQWRELMAAVNADEDVYAVAERMMDAFAAFRESLVEPENYLQEQREEVLKEDDIVPYSDTDDYADFSGVEAVVEELLAAVKEQLESHAAAPPSSFRQTKHSSLRGSFASDERPKHPDGESAEAHKVSADARRQALLKLLVITVLMGRVEQYCRFKSISDASNVPQSEAEEMRDGVASVWQWLFHEQPGVLTAEEGAEWKHIAGAFLGDSYTVAP | not soluble
MAHHHHHHMCVRSMDPTKKGNENFPQRNVAIEEANFDSAFPAFNVHYNVEPKDWRHIELVEKEKQDFLLGIKKEIRLMQEDKNKINYVLNVQKQQLEELQFLLNRMKHFRRKSLIAEGEEQLKVDLLAMPRYLRTGTLFSVDTLGEENALRDFNELHNYSVDKSRLTTRGSFYHNLAEQWVG | not soluble
MAHHHHHHMDATPHMHAKTIFMTHWDGLEKDSDARIIVVGATNRRFTIDDAIRRRLPLQLEVPPPDAKAREKILSILLAHDLEYNPKKDGLIRYVALKTAEYTGSDLSELCKAAALMPLREMESMKAGGASSAAPETVPPLTQQHFDKAMERVKASK | soluble
MAHHHHHHMDDRDAELDIDEDGIFTCEEVNALTSAMWKAEGLTRVPRSRRHHRQAPPQQRTSAAAVDSLQPGPLAASTTTPGGGSVTDVTLQPLLNTTGEDGGHRSLGGDIRGLPSSFSNAPLFASATTTAAGLSSTSSPQPTSQALHHHHNDVDRQLGGNSNTSGRRMAGGGGSVGGEGSRSSSSVYEVLIQRVLAMDTASDIWSLGVLLYGMCADTADAQQQEEQQQHQASASTTTPTLNPPHATAAGSSPVRAHEGVAGTLPPAMPTCTCASRLAQRAFAALLGDLYDLAVTGVPSGDRGNNGWSCDGVDVEQLDEAADDHLRWPRSCALEEEVMQAIGEAGYTHVFASVLASMLSPVAARRPSAGDIVNQLRLVTTGAPATLASNIMRGGGGGLADADDEYSVARQSPPPRIQHSGGASDATSSVMLHEQTACMALRQR | not soluble
MAHHHHHHMDHQDLKPVIWHKTEKKTKPKDIHEARKLGIDVEVEKKYFGGKNKSSKGNLIIENKAKIEQETENFKIDRVTPAFSRALQQARISKKLTQAQLARLVNESESVIKEYENGKAIPNNVIIQKLNKVLGVNLPSPKKK | soluble
MAHHHHHHMDIIKNETKEMDMYNPSVSINFEKGILKNSCDTPKDTKLEKLKREYNILTSSYDYNSGNKKERRNIWKEKVKHNIASKNKKKMVKIKKEENNNELENKKGENLLMYVNDKNSNLNVYIDENDLFEETPNISSNTLLSYISNIFLRKKNIYEIKKCDFIKEVNTDESLKRNFIPPVDILYDDKKVLFLFFISGNLQNFHVTSNNNYLTISGEKIPYQVQDHTSYFSHEIKKGYFIRTYCFMKTFDKEKIYYEQNNGVIKIYVYICDDNNI | not soluble
MAHHHHHHMDMQEQISDKGADDYDDTLVELKESELLKEDEKKKTKKKLYELNELHHLVNALPYIDSYDNELEQNAKRLVEEEMNLMHKNNEIKNYLETFPLPKITYLSNDNSIIQNELKRCEENRKMQKLNFDHYNIENDVLNNKNIEEWEKTLKKYEIILENSHNALINMELMNKYKEVMWSEHMKVFNHLDINLQNNIKTLKDDIDNINKKRKLHQLSYVNELSTLQNEQKEYKKKNNMVLNEIKKLMTENMLMKYKTNMI | not soluble
MAHHHHHHMDPLAGLTTGSRNVIDDFFRWSRLSLDKFKRDLTVEASAFQAGNLWREQYTKAEVAQMLNGQLALMLGVVDTQMEGTTAASAELMRAVLREADRQRVTLDIDVKSVLNNAGGVNAMGEHGRQLMSGPTGRLAPLTVEEASGEAARQLAEANAEVKRLQAKLQQVTDAYTQVMRGRSSDTENLLSMQDAMNDKERLAAELARRCQGQDPSLAATVQELRAEVAEAKRELASRLHQSTQYQQVKHLLAQRNEQLKMMRERLAAYDPSFARYGDDINAEDD | soluble
MAHHHHHHMDQFIRSRTDWKERVVFRLVWITASRWFGISGLHSQQFYTGAGRDPNLGLARGAEDGEGGSPPRLSVRQDTRAGGCVRHYKVMQDTSTQRKAHESYDCPLGASSGLLECHGAFHKTRCVEARCSNRGGVQFGPTRDPAVGEARRPVRPSPEYCLIFGEIHHNADPGVVASRIDVKRETAEGQ | not soluble
MAHHHHHHMDREDDKKNKFPFTQNNCVVVRSKLDRKNISKMKLSDEQVTANEEITKSVLLKEVNMQDAYDQIGKNANDFSRIYNLFERELLNKSNIKNVYINGIKKNIIVDDGHMKTKVEKKSLKLIDEIHLTYKKRPIILIEKESSNHIINRNNVESFFVHNCLDNSGANRKGTHAASGGGEGAVTGPYNSIPIIYKMFNKKKSIKFSFIENDQISKLTETDWKCVIAVIIKSKESLKDILNEYPFEIPTALFQPFKSFFFMFNDVIIPSDLLTGGNVDIIRLSRDKRKEDYLAVNKFWTNIEKFILQRRDKSCYTRKKKF | not soluble
MAHHHHHHMECGYSNEGKFHQVVLTIKEKIEKHDLSKWKDIVKPEEGPKYDEYFERLLREGNQEKDKNGKDTEGKDTHEKNTHDEGVHGKDDLSAEQVEKTPSHEYQQTEDEENPKKFQLNKEFFDKINNKEKFYFLLNIKEMMETSWLLAQKRLEGIKVEEKSKSVNVQDLLNYSQKIADTTCAPPECDNINDRIMHQEYYPNYHFLNFVNVEEIHLSKLFQLQKYSTVCFPPIITIQEGKDNMLVLHISCSTPHATIYYKVNDETNEQIYNTDEKPKIRKRKKINVYAWSVKNGHIKSRISCISKSYKVEEDDSFSLSDNFPNKDQGEQPSGFSKTGTECNAPGSKPSQITNVFKNLGFLLSRKKEKTEESSSNGDSSSEA | not soluble
MAHHHHHHMEENNQVEKNKTNQLCFVKMLVNNLVAGSVIGKNGSIITSIENKTGCSLKLSPTNSYFPNTQERVLVLCGKQEQINNALLIILDKIRQITVQSFQDKQNMNTVPKYTCRIVIPKSAASAIIGKGGQQIKQLQDSTGAKIQISSREDGLNERIISIIGPFESISDTAIKVTNSIQNDPNLKDLLNVIYNKDTNMNGRSSLSQNFVNQVPLNGYVVPQQYGVFQHEQYMDVNMMNSLMRHSRDLFNLPCEISIQI | not soluble
MAHHHHHHMEGARGSTLQVCGERHTMSLSLATALYADATRLYRLGDLHHARGAAEEALLSLSHSPHSDISDHTNHRHGDAHHEEAADSVSVGCEGSQAQQRQRHRLFGNTLLLLSSIYMAVQDYAEAERLLVTCDGYWRERLTSTHTRLSSVGTSAEVECACCSELDEGLAGVAYNRAVLRLEQLRRTPSFPASRDDGELWVAPPADLCGTDARLTYSLIPLSSTAASSGTPETLLASVMALLLDAQDRLAHTLGPPRGLLADVLHTIGVCHYEAADYIAALQAWQRSMAIRVHLQALRRRSDKNAAQRALHGGGGGECGDGTEELKLALTMEHVAQVYRLLEGRSVEALKLLDTVAATRRRYLGPTDPLCVRTLVLKGVLAAELGHTQLARALLERCSAIGGDASPETPPPSSSAYAVQEVEQ | soluble
MAHHHHHHMEHVRHLLDVIMGRATLDPGVARVVSVFFNQKSSGFSPQELMQFLVTCAFHVKGMTPLEAARFCFFALRRDMEHAIARDDVIFMLEHSLIEHTIEMPEMELRRRVVDIFGDTTYVIFDDFVRYFIHNYAMWYAFGVPVTVSGERSGRGGDVAPQLNPTLTLLKADGEPNAKARAPTAATTVSTSGAAPVSASTSTTAATPAAAITTATTQKTVPHDESVWRTFIARVQHSNKAFSVTAHVNDTIFDVMVMVQNSTGIRAACQEWRAGNVALDPKCRLGSTELGLGGNEVAAPEVIIIARDEAVRLVMVYKEKGFRWEVRLPSSEKVLKLRALVQHKTMIPLTRCVLRAHGSCLMDRHPLAHYNLQDGDVVTITQE | not soluble
MAHHHHHHMEKVITMREIITNTRKIKLHENFLEDCNLKDIFYNGLETVNCGYNDYVNMKTWLFVLSEKMFRTDYEELAYVACDALKVLLCNSKFLNVIIFKLLRKKLEKEILKIMGICCLTVASRMQQINESTCFKVILELSNLKDKLNEFNIRQIEMDVFVTLAHSGFCFEKIITPVNELNQIMKFLETYENFFDNNFNTFKSSSNLMLKIIYCMVPVFNMNIYNYSIVNYALRLFIQDNDKYEFIFEKLKQNYQDKEIIHISNFQNHMHNIINAFKNTSIFSAKDSILNNQLDVQLFEEINKKIEAYYEQKHKT | not soluble
MAHHHHHHMERTNLGHGAVGSLAQLCDELRKSYAAAKEIEQRDTTLTKSETANTLKETSNLFALGMEKLISSDGNVVEVKDAIALAEDAEREVAALRAEKARLQSTEDGHRSKLSATGSDAEVEAFVAYAKELSELHDHLFLARVVFKGVLTKRLEDIRDDRLSQQDKRFTDPKSWDVKKGVLERMLQSLRTKTAQLQLSAKTYLDEDEALFLEVMNLATEAGDHVRRGDAMREARDEKLKVFYAECAKLTGWCRQQLTNLEAMQEPDHVQEYCATLADNYPTMSNNFAVLFNSVQEYVQASLIPVHKALLEAEEVWLYLQVSTLERLSKTLFEIHPQSPLDVEVEKYSSYPEHAAKFLQDLERYLAAQHRQQDEVAELDSVHKECQEVLHTLSGQFAELPSEVHAFAQRAQALRAGYQCFREALLQRLTYVSPAASTVVESKRRQEEFENCVRELKSWAAEASHGESWRDIYSKIVEIKQMIKSEQASLEMKRERAVASGQSR | not soluble
MAHHHHHHMEVFNFGKYNGKTFEEVFEKHKSYVTWVKSLESPSGSLLDFKNYVLQKEGKKNSSNMANNNHYNNEKNSNNNYSNNMYENNVRSPNIYNEQYTNNNKMKENYDRNANMNNNEICTNNNRINENNVKSPHYYNNEKNINNYSHECNRSKIAYKHNYSENRNSYNNFEKSSVDTNYTNEEKKKFHNMNSSEYRNYEEKVMSDINNAYNQPEEKKEFDIIVAFEIFSDDSFKIVQKDNNNKKFVSFRNFISKDLFKIISELNPTLKKINNYTCITFEAEKYEYVLNNLKEKCTILGGVHTIPNFLLKCFKNYTKFSEPQRISEITANILTNTMCSYTKQHYDKLDHLLGEKLSVELRNFQREGVFFGLKKNGRVLIGDEMGLGKTLQALALMAFYKDDWPFIVVCPSSIRFQWKDQALRWLSHLIREEHICVVKNGKTDIPSNTKMIIISYELITKNDKYQDKYKSIICDESHYLKNSLSKRTKVITPIIKNAKRCVLLSGTPALNKPSELYEQISSIMPNFFNYHEFCDRYCFKDKNLYTKKIEYVGCKHTEELHLFLTNTIMIRRLKKDVLKELPDKLRSKIPVEIPQKELSEILNYYKKLESKKNINFHDIDNIHLSNWSNSKSEDGDDENLSISHLFKITGYAKVKAIKEYISYLIDADIKFLLFCHHKLVMDEVETFLKEQKCSYIRVDGLTPMEKREIYIKNFQNDDNVKIALLSITACGMGLNLTAANTVVFGELFWVPGQIIQAEDRAHRIGTAHDVVNIHYLIAQNTIDEIVWKIINRKWNTLTTALNGIEDSLNVKEVNKFDKFMVDLTNDTNKSYPTSLVTTPKVRRKSSEHGTFHNSSPKKKNRDIRDFFTANKCNESVEKSWNNNINKRSYHDSPMNDSPNTTLKFLSKKYKTEIN | not soluble

Reference: the DeepSol protein solubility set
